# Laboratory results reported in patent US20250262153A1.
# B1: prolgolimab (antibody, from a related filing, V domains shown)
# VH: QVQLVQSGGGLVQPGGSLRLSCAASGFTFSSYWMYWVRQVPGKGLEWVSAIDTGGGRTYYADSVKGRFAISRVNAKNTMYLQMNSLRAEDTAVYYCARDEGGGTGWGVLKDWPYGLDAWGQGTLVTVSS
# VL: QPVLTQPLSVSVALGQTARITCGGNNIGSKNVHWYQQKPGQAPVLVIYRDSNRPSGIPERFSGSNSGNTATLTISRAQAGDEADYYCQVWDSSTAVFGTGTKLTVLQ
# Target: PD-1 protein on the surface of Jurkat PD-1 NFAT line cells (UniProt Q15116)
# Experiment: cell-based or functional assay
# UniProt Q15116, sequence (Q15116 25-288 limits assumed): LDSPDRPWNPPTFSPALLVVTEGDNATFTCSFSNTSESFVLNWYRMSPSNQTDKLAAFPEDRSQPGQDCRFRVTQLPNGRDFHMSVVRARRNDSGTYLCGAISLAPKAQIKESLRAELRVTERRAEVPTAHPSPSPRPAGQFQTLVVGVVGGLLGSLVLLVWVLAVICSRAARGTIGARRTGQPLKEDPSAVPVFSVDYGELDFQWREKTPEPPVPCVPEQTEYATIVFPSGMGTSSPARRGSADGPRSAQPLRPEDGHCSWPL
binder,measurement,value
B1,"Relative specific activity, % (ED50 standard / ED50 test, Jurkat PD-1 NFAT luminescence); 20 mg/ml, histidine, trehalose 100 mg/ml, 37 C, initial control",105%
same,"Relative specific activity, %; 20 mg/ml, acetate pH 5.0, trehalose 80 mg/ml, 37 C, 2 weeks",103%
same,"Relative specific activity, %; 20 mg/ml, acetate pH 5.0, trehalose 80 mg/ml, 37 C, 4 weeks",94%
same,"Relative specific activity, %; 20 mg/ml, acetate pH 5.0, trehalose 80 mg/ml, 37 C, initial control",100%
same,"Relative specific activity, %; 20 mg/ml, acetate pH 5.0, trehalose 100 mg/ml, 37 C, 2 weeks",93%
same,"Relative specific activity, %; 20 mg/ml, acetate pH 5.0, trehalose 100 mg/ml, 37 C, 4 weeks",99%
same,"Relative specific activity, %; 20 mg/ml, acetate pH 5.0, trehalose 100 mg/ml, 37 C, initial control",89%
same,"Relative specific activity, %; 20 mg/ml, histidine, trehalose 80 mg/ml, 37 C, 2 weeks",103%
same,"Relative specific activity, %; 20 mg/ml, histidine, trehalose 80 mg/ml, 37 C, 4 weeks",94%
same,"Relative specific activity, %; 20 mg/ml, histidine, trehalose 80 mg/ml, 37 C, initial control",100%
same,"Relative specific activity, %; 20 mg/ml, histidine, trehalose 100 mg/ml, 37 C, 2 weeks",97%
same,"Relative specific activity, %; 20 mg/ml, histidine, trehalose 100 mg/ml, 37 C, 4 weeks",110%
same,"Relative specific activity, %; 100 mg/ml, acetate pH 5.0, trehalose 80 mg/ml, 37 C, 2 weeks",94%
same,"Relative specific activity, %; 100 mg/ml, acetate pH 5.0, trehalose 80 mg/ml, 37 C, 4 weeks",105%
same,"Relative specific activity, %; 100 mg/ml, acetate pH 5.0, trehalose 80 mg/ml, 37 C, initial control",89%
same,"Relative specific activity, %; 100 mg/ml, acetate pH 5.0, trehalose 100 mg/ml, 37 C, 2 weeks",112%
same,"Relative specific activity, %; 100 mg/ml, acetate pH 5.0, trehalose 100 mg/ml, 37 C, 4 weeks",97%
same,"Relative specific activity, %; 100 mg/ml, acetate pH 5.0, trehalose 100 mg/ml, 37 C, initial control",107%
same,"Relative specific activity, %; 100 mg/ml, histidine, trehalose 80 mg/ml, 37 C, 2 weeks",94%
same,"Relative specific activity, %; 100 mg/ml, histidine, trehalose 80 mg/ml, 37 C, 4 weeks",105%
same,"Relative specific activity, %; 100 mg/ml, histidine, trehalose 80 mg/ml, 37 C, initial control",89%
same,"Relative specific activity, %; 100 mg/ml, histidine, trehalose 100 mg/ml, 37 C, 2 weeks",104%
same,"Relative specific activity, %; 100 mg/ml, histidine, trehalose 100 mg/ml, 37 C, 4 weeks",97%
same,"Relative specific activity, %; 100 mg/ml, histidine, trehalose 100 mg/ml, 37 C, initial control",101%
same,"Relative specific activity, %; 150 mg/ml, acetate pH 5.0, trehalose 80 mg/ml, 37 C, 2 weeks",99%
same,"Relative specific activity, %; 150 mg/ml, acetate pH 5.0, trehalose 80 mg/ml, 37 C, 4 weeks",108%
same,"Relative specific activity, %; 150 mg/ml, acetate pH 5.0, trehalose 80 mg/ml, 37 C, initial control",91%
same,"Relative specific activity, %; 150 mg/ml, acetate pH 5.0, trehalose 100 mg/ml, 37 C, 2 weeks",106%
same,"Relative specific activity, %; 150 mg/ml, acetate pH 5.0, trehalose 100 mg/ml, 37 C, 4 weeks",103%
same,"Relative specific activity, %; 150 mg/ml, acetate pH 5.0, trehalose 100 mg/ml, 37 C, initial control",92%
same,"Relative specific activity, %; 150 mg/ml, histidine, trehalose 80 mg/ml, 37 C, 2 weeks",99%
same,"Relative specific activity, %; 150 mg/ml, histidine, trehalose 80 mg/ml, 37 C, 4 weeks",108%
same,"Relative specific activity, %; 150 mg/ml, histidine, trehalose 80 mg/ml, 37 C, initial control",91%
same,"Relative specific activity, %; 150 mg/ml, histidine, trehalose 100 mg/ml, 37 C, 2 weeks",100%
same,"Relative specific activity, %; 150 mg/ml, histidine, trehalose 100 mg/ml, 37 C, 4 weeks",105%
same,"Relative specific activity, %; 150 mg/ml, histidine, trehalose 100 mg/ml, 37 C, initial control",97%
